Test system: Arabidopsis thaliana T1 plants
Assay: Topramezone tolerance of transgenic Arabidopsis thaliana T1 plants (pesticide damage grade by bleached leaf area, score, resistance evaluation)
Format: in vivo
Conditions: HPPDs from different species, 7 DAT; for Classification and statistics of pesticide damage grade Grade 0 / Classification and statistics of pesticide damage grade Grade 1 / Classification and statistics of pesticide damage grade Grade 2 / Classification and statistics of pesticide damage grade Grade 3: number of plants (of 16) in this grade; for Scores: score for pesticide damage 0-100
Outline: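 Herbicide tolerance was judged per plant on a bleaching scale (grade 0 no bleaching to grade 3 fully bleached) 7 DAT. Topramezone doses were 0, 25, 50 and 100 g ai/ha on 18-day-old T1 and wild-type plants.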

B1: N2HPPDm-F372A-02: Sphingobium sp. N2 HPPD mutant F372A, SEQ ID NO: 156 (protein)
chain: MTLFDNPLGLDGFEFVEFSAPAKGMLEPVFAAMGFVMIARHRSKDVQLWRQGGINLIANYEPRSPAAYFAAEHGPSACGMGWRVRNAAKAYELAVERGAEPVDVKTGPMELRLPAIRGIGGSIIYLIDRYEDEDGGLSIYDIDFVYEPGVDRHPEGAGFKIIDHLTHNVYGGRMAHWASFYERVFGFREIRYFDIKGEYTGLTSKAMTAPDGKIRIPLNEEGKAGGGQIEEFLRAYNGEGIQHIAFLCDDLIAAWDKLKALGTPLMTAPPATYYEMLDERLPGHGEPVAELQKRGILLDGSTQQGDPRLLLQIAGQATIGPVFFEFIQRKKDEGFGEGNFTALFESMERDQLRRGTLNAGESA
modifications: N2HPPDm-F372A Amino Acid Sequence
With B1 the “Classification and statistics of pesticide damage grade Grade 0” value (topramezone 25 g ai/ha (1x)) was 16, the “Classification and statistics of pesticide damage grade Grade 1” value (topramezone 25 g ai/ha (1x)) was 0 and the “Classification and statistics of pesticide damage grade Grade 2” value (topramezone 25 g ai/ha (1x)) was 0. The “Classification and statistics of pesticide damage grade Grade 3” value (topramezone 25 g ai/ha (1x)) was 0, the “Classification and statistics of pesticide damage grade Grade 0” value (topramezone 100 g ai/ha (4x)) was 16 and the “Classification and statistics of pesticide damage grade Grade 1” value (topramezone 100 g ai/ha (4x)) was 0. The “Classification and statistics of pesticide damage grade Grade 2” value (topramezone 100 g ai/ha (4x)) was 0, the “Classification and statistics of pesticide damage grade Grade 3” value (topramezone 100 g ai/ha (4x)) was 0 and the Scores (topramezone 25 g ai/ha (1x)) was 0. The Scores (topramezone 100 g ai/ha (4x)) was 0, the Resistance evaluation (topramezone 25 g ai/ha (1x)) was “highly resistant (highly resistant plants (scores 0-15))” and the Resistance evaluation (topramezone 100 g ai/ha (4x)) was “highly resistant (highly resistant plants (scores 0-15))”.

B2: N3HPPD-02: native Burkholderia sp. N3 HPPD, SEQ ID NO: 159 (protein)
chain: MQIPNWENPVGTDGFEFIEYTAPDPKALGQLFERMGFTAIARHRHKDVTVYRQGDINFIINAEPHSFAQRFARLHGPSICAIAFRVQDAAKAYQHALELGAWGFDNKTGPMELNIPAIKGIGDSLIYFVDRWRGKNGAQPGAIGDISIYDVDFEPIAGANPNPAGHGLTYIDHLTHNVHRGRMQEWAEFYERLFNFREVRYFDIEGKVTGVKSKAMTSPCGKIRIPINEEGSDTAGQIQEYLDAYHGEGIQHIALGTNDIYGAVDGLRGKEVKLLDTIDTYYELVDRRVPDHGESLDELKKRKILIDGARDDLLLQIFTENQIGPIFFEIIQRKGNQGFGEGNFKALFESIELDQIRRGVVQDKA
modifications: N3HPPD Amino Acid Sequence (Burkholderia)
With B2 the “Classification and statistics of pesticide damage grade Grade 0” value (topramezone 25 g ai/ha (1x)) was 0, the “Classification and statistics of pesticide damage grade Grade 1” value (topramezone 25 g ai/ha (1x)) was 6 and the “Classification and statistics of pesticide damage grade Grade 2” value (topramezone 25 g ai/ha (1x)) was 8. The “Classification and statistics of pesticide damage grade Grade 3” value (topramezone 25 g ai/ha (1x)) was 2, the “Classification and statistics of pesticide damage grade Grade 0” value (topramezone 100 g ai/ha (4x)) was 0 and the “Classification and statistics of pesticide damage grade Grade 1” value (topramezone 100 g ai/ha (4x)) was 0. For the same molecule, the “Classification and statistics of pesticide damage grade Grade 2” value (topramezone 100 g ai/ha (4x)) was 0, the “Classification and statistics of pesticide damage grade Grade 3” value (topramezone 100 g ai/ha (4x)) was 16 and the Scores (topramezone 25 g ai/ha (1x)) was 58. The Scores (topramezone 100 g ai/ha (4x)) was 100, the Resistance evaluation (topramezone 25 g ai/ha (1x)) was “poorly resistant (poorly resistant plants (scores 34-67))” and the Resistance evaluation (topramezone 100 g ai/ha (4x)) was “non-resistant (non-resistant plants (scores 68-100))”.
